Reference: patent US20230189818A1, “RNA-BASED CONTROL OF BOTRYTIS” (priority 2021, published 2023)

System: B. cinerea
Experiment: Open-air field trial on strawberry (Example 4.4, AUDPC of % disease severity)
Type: in vivo, Botrytis cinerea
Conditions: FIG. 10
Protocol: RNAi compositions, each containing a dsRNA comprising a trigger sequence (GS349) described herein were evaluated for ability to control botrytis on strawberry in open-air field trials. All test samples were formulated as described in Example 4.3 and were tank mixed with standard adjuvant, Activator 90 0.25% v/v. Compositions were tested at concentrations of 10, 20, 30, and 40 g ai/ha. A biological standard program of Regalia 470 g ai/ha and Stylet Oil 6800 g ai/ha was used as a positive control. A chemical standard program of Captan 2240 g ai/ha and Switch 525 g ai/ha was used for a second positive control. An untreated check group was used as a negative control.
Compositions were applied to strawberry plants using a small plot sprayer delivering 50 gallons of water per acre. Five applications were made at weekly intervals. Disease state was evaluated beginning 6 days after the first application and ending 12 days after the fifth and final application. Percent Disease Severity was assessed and AUDPC was calculated in the same manner as noted in Example 4.1.

B1: GS349: dsRNA trigger targeting B. cinerea CDC42 (XM_001545642.2); trigger SEQ ID NO 14, RNA 26, reverse complement 38 (nucleic acid, listed as Botrytis cinerea)
sense: GUUGUCUUGUCUCGCUCAAGCUUGUCCUGUCUGGUCACUUUUCUUUCUGCCUGAUAAUCCAGACCUCGAAAAUAACCAAAAGAUUGGAAAUCGUUUGCUCAUCUUGCAUGCAUUAUUACUUUCCUGGAUCAAUCUCAUUCAACUCGUUCUCGUGCAUUUCAUUCAACCUCAACCCCUACUUUCAGUCAAUUCAAUUUAAUUCAAUCAUUCAAAUCUUUCAUUUCGCACACUUCACAUUCAACCAUCCUCUCUCAAUCAAAUAUCACCACCUCUCUUAUCGAACGUCAUUUUGCAUACAAUCAAUUCCUACAGACCGAGCGCAACUCGAUACAACCAUCGAAUAACUUCUCACACUUGCUUGUUGAAUUGAUUACUGAAGAAAGUGGAUUUCAAAGACCGAUUUUCCCCCUAGAUAUUCAAGAACGGCUUAUUCUUGUCUCGAGACAAAAC
antisense: GUUUUGUCUCGAGACAAGAAUAAGCCGUUCUUGAAUAUCUAGGGGGAAAAUCGGUCUUUGAAAUCCACUUUCUUCAGUAAUCAAUUCAACAAGCAAGUGUGAGAAGUUAUUCGAUGGUUGUAUCGAGUUGCGCUCGGUCUGUAGGAAUUGAUUGUAUGCAAAAUGACGUUCGAUAAGAGAGGUGGUGAUAUUUGAUUGAGAGAGGAUGGUUGAAUGUGAAGUGUGCGAAAUGAAAGAUUUGAAUGAUUGAAUUAAAUUGAAUUGACUGAAAGUAGGGGUUGAGGUUGAAUGAAAUGCACGAGAACGAGUUGAAUGAGAUUGAUCCAGGAAAGUAAUAAUGCAUGCAAGAUGAGCAAACGAUUUCCAAUCUUUUGGUUAUUUUCGAGGUCUGGAUUAUCAGGCAGAAAGAAAAGUGACCAGACAGGACAAGCUUGAGCGAGACAAGACAAC
What does the source list for B1?
Disease compared with the chemical standard program (AUDPC) (10, 20, 30 and 40 g ai/ha, Captan 2240 g ai/ha and Switch 525 g ai/ha): no significant difference; Disease compared with the biological standard program (AUDPC) (10, 20, 30 and 40 g ai/ha, Regalia 470 g ai/ha and Stylet Oil 6800 g ai/ha): no significant difference; Disease caused by B. cinerea vs untreated check (AUDPC) (formulated, Activator 90 0.25% v/v, 10, 20, 30 and 40 g ai/ha, five weekly applications): significantly reduced disease
